For experiment [1], the target named is δ-type opioid receptor (DOR), rat, wild type, fluorescently tagged, expressed in the PM of CHO-K1 cells (Example 1) (rat) (UniProt P33533). Kind of experiment: distribution of colocalisation durations with WT-DOR; single-molecule imaging.
Experiment [2] deals with SNAPf-DOR: rat DOR with the SNAPf tag protein at its N-terminus, expressed in the PM of CHO-K1 cells (Example 2) (rat) (UniProt P33533). Kind of experiment: single-molecule imaging, homodimer 2D-KD; copies/um2; - agonist.
For experiment [3] the target is unchanged. The experiment can be described thus: single-molecule imaging, PCCF fit; copies/um2.
The target is the same in experiment [4]. The experiment can be described thus: single-molecule imaging, homodimer 2D-KD; copies/um2; + agonist.
Experiment [5] addresses µ-type opioid receptor (MOR), rat, wild type, fluorescently tagged, expressed in the PM of CHO-K1 cells (Example 1) (rat) (UniProt P33535). Kind of experiment: distribution of colocalisation durations with WT-MOR; single-molecule imaging.

Turning to “MORΔ32-61 (MOR N-terminal deletion mutant) (from UniProt P33535 1-31; P33535 62-398) (receptor)”, the dimer lifetime (τ2) in experiment [1] is 91 ms.
Regarding “SNAPf-DOR: rat DOR with the SNAPf tag protein at its N-terminus, expressed in the PM of CHO-K1 cells (Example 2) (from UniProt P33533 1-372)”, the Kd in experiment [2] is given as 7.91 ?; in experiment [3], 7.91 ?; in experiment [4] it was 3.58 ?.
“DORΔ22-42 (DOR N-terminal deletion mutant) (from UniProt P33533 1-21; P33533 43-372) (receptor)” returned a dimer lifetime (τ2) in experiment [5] of 88 ms.

The record behind these values is patent US20250368686A1, “PEPTIDE DRUGS FOR S[…] D[…] BLOCKING HOMO- AND HETERO-DIMERIZATION OF OPIOID RECEPTORS” (OKINAWA INSTITUTE OF SCIENCE AND TECHNOLOGY SCHOOL …, priority 2022, published 2025).
